Results reported in patent EP1638605B1 (Raptor Pharmaceutical, Inc., dated 2014).
Each block holds one molecule with its values, some of them ahead of it.

Experiments:
[1] = target: mLRP/LRPTmMegT mini-receptor (fourth ligand binding and transmembrane domains of LRP1 with the C-terminal cytoplasmic tail of megalin) on MDCK cells (UniProt Q07954); assay: cell-based or functional assay
[2] = target: T1, recombinant human alpha-L-iduronidase (Aldurazyme) (human, UniProt P35475 27-653, limits assumed); assay: ligand blot, sLRP2 (1 µg/well) on membrane, antibody detection
T1 construct: also called rhIDU; Recombinant human IDU
T1 sequence (looked up): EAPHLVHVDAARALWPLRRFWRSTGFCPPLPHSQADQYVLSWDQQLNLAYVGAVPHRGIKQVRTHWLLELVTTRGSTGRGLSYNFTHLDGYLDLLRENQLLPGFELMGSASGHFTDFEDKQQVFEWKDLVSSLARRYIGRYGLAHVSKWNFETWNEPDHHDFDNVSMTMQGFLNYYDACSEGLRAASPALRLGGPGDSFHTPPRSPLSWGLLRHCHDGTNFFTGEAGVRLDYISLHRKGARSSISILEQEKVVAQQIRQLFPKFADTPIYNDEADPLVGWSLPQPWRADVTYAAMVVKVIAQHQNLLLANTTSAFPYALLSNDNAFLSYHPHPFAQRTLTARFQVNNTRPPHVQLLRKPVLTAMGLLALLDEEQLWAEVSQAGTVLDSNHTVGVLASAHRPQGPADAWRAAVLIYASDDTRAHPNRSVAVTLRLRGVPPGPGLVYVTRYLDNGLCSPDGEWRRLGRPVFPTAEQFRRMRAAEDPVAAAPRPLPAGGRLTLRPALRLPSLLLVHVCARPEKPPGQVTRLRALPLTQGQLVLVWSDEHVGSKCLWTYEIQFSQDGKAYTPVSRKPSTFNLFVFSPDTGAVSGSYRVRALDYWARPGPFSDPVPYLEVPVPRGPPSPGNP

mLRP/LRPTmMegT mini-receptor (fourth ligand binding and transmembrane domains of LRP1 with the C-terminal cytoplasmic tail of megalin) on MDCK cells, sequence (Q07954 3293-4444): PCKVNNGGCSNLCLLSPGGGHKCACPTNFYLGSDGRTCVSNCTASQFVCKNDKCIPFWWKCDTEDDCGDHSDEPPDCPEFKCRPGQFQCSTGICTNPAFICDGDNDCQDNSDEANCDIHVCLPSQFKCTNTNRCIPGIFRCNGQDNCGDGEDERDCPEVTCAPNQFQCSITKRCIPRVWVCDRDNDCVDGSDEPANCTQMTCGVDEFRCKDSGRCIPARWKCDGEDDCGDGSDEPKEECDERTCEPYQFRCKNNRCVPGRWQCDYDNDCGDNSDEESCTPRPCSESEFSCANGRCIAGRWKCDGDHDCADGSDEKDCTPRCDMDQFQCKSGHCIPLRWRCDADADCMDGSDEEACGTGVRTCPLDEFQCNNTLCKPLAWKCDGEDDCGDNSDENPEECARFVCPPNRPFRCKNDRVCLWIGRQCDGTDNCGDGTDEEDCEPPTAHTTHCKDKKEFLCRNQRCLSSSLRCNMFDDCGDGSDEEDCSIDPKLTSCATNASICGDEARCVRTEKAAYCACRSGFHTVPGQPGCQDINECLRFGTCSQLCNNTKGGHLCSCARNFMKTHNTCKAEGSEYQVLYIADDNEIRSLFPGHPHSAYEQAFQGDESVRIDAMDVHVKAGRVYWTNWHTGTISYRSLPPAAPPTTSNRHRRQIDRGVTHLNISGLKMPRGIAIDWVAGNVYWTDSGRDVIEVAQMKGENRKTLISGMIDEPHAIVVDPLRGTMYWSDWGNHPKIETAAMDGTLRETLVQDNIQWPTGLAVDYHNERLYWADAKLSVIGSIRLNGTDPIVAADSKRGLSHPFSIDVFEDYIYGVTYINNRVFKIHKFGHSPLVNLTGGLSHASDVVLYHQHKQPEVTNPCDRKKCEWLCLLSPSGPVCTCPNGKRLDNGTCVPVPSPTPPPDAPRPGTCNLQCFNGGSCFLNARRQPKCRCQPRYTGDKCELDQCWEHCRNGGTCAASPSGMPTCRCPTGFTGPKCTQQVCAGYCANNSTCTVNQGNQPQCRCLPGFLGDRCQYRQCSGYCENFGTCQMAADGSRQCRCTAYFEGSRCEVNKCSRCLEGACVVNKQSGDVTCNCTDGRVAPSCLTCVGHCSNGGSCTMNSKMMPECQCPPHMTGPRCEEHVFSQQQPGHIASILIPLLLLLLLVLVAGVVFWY

apical-to-basolateral permeability coefficient of 125I-RAP across MEGt-transfected MDCK monolayers with excess unlabeled RAP at 2 µg/ml [1]: 6.3 ×10⁻⁶ cm/s | apical-to-basolateral permeability coefficient of 125I-RAP across MEGt-transfected MDCK monolayers, 60 min [1]: 18.1 ×10⁻⁶ cm/s | ratio of apical-to-basolateral to basolateral-to-apical permeability coefficient of 125I-RAP in MEGt-transfected MDCK cells [1]: 460 fold
Molecule: receptor-associated protein (RAP) (ligand)

binding result [2]: no binding
B1: sLRP2, the entire second ligand-binding domain of human LRP1 (recombinant) (receptor, UniProt Q07954 806-1183, looked up)
chain: KCRVNNGGCSSLCLATPGSRQCACAEDQVLDADGVTCLANPSYVPPPQCQPGEFACANSRCIQERWKCDGDNDCLDNSDEAPALCHQHTCPSDRFKCENNRCIPNRWLCDGDNDCGNSEDESNATCSARTCPPNQFSCASGRCIPISWTCDLDDDCGDRSDESASCAYPTCFPLTQFTCNNGRCININWRCDNDNDCGDNSDEAGCSHSCSSTQFKCNSGRCIPEHWTCDGDNDCGDYSDETHANCTNQATRPPGGCHTDEFQCRLDGLCIPLRWRCDGDTDCMDSSDEKSCEGVTHVCDPSVKFGCKDSARCISKAWVCDGDNDCEDNSDEENCESLACRPPSHPCANNTSVCLPPDKLCDGNDDCGDGSDEGELCD
notes: also called immobilized LRP
